This passage reports Ho/Con_1a results from patent publication US20150344570A1 (published 2015).

The chains are these.
B1: GpH7-B3 variant S337_18N/GpL16-k0 (antibody, human IgG1, kappa)
heavy: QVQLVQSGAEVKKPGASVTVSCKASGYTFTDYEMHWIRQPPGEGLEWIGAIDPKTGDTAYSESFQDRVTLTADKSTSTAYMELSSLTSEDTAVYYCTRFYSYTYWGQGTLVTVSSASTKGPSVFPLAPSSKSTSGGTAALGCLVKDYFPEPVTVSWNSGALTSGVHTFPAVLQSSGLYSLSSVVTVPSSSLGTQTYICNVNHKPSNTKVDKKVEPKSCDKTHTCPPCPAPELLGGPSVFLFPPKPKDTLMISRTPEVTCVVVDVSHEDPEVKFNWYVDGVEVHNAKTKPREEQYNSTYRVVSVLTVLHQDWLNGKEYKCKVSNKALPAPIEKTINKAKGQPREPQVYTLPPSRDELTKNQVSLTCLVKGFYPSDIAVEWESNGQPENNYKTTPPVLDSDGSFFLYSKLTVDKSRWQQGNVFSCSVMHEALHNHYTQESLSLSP
light: DIVMTQSPLSLPVTPGEPASISCQASESLVHSNRNTYLHWYLQKPGQSPQLLIYKVSNRFSGVPDRFSGSGSGTDFTLKISRVEAEDVGVYYCSQNTHVPPTFGQGTKVEIERTVAAPSVFIFPPSDEQLKSGTASVVCLLNNFYPREAKVQWKVDNALQSGNSQESVTEQDSKDSTYSLSSTLTLSKADYEKHKVYACEVTHQGLSSPVTKSFNRGEC
notes: Alteration in both H chains; also called Ho Ab S337_18N
B2: GpH7-B3 variant Y300_16H/GpL16-k0 (antibody, human IgG1, kappa)
heavy: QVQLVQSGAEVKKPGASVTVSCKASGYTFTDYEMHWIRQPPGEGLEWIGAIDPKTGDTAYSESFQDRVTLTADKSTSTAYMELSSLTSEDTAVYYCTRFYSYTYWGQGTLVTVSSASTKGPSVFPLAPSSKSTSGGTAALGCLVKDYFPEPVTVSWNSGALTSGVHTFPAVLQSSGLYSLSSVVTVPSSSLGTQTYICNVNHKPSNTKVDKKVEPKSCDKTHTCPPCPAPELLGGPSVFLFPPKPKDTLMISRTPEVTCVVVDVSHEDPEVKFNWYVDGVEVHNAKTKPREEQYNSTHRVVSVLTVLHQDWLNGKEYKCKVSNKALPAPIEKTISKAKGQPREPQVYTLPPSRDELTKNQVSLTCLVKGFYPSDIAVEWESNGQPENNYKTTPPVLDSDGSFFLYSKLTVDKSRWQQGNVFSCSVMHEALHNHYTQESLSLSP
light: DIVMTQSPLSLPVTPGEPASISCQASESLVHSNRNTYLHWYLQKPGQSPQLLIYKVSNRFSGVPDRFSGSGSGTDFTLKISRVEAEDVGVYYCSQNTHVPPTFGQGTKVEIERTVAAPSVFIFPPSDEQLKSGTASVVCLLNNFYPREAKVQWKVDNALQSGNSQESVTEQDSKDSTYSLSSTLTLSKADYEKHKVYACEVTHQGLSSPVTKSFNRGEC
notes: Alteration in both H chains; also called Ho Ab Y300_16H
B3: GpH7-B3 variant Y296_02A/GpL16-k0 (antibody, human IgG1, kappa)
heavy: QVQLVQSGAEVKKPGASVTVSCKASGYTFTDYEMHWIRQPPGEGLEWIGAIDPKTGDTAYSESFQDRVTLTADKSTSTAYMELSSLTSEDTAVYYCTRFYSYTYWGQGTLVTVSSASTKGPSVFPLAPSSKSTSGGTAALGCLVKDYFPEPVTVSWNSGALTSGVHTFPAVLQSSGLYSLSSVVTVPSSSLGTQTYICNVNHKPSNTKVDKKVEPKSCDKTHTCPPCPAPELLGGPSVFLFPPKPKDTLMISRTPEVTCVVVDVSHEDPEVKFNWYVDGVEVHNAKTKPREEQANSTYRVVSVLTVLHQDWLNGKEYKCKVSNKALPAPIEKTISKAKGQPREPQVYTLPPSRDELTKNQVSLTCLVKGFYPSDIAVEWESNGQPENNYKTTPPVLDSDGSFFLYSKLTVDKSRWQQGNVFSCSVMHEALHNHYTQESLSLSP
light: DIVMTQSPLSLPVTPGEPASISCQASESLVHSNRNTYLHWYLQKPGQSPQLLIYKVSNRFSGVPDRFSGSGSGTDFTLKISRVEAEDVGVYYCSQNTHVPPTFGQGTKVEIERTVAAPSVFIFPPSDEQLKSGTASVVCLLNNFYPREAKVQWKVDNALQSGNSQESVTEQDSKDSTYSLSSTLTLSKADYEKHKVYACEVTHQGLSSPVTKSFNRGEC
notes: Alteration in both H chains; also called Ho Ab Y296_02A
B4: GpH7-B3 variant T335_13S/GpL16-k0 (antibody, human IgG1, kappa)
heavy: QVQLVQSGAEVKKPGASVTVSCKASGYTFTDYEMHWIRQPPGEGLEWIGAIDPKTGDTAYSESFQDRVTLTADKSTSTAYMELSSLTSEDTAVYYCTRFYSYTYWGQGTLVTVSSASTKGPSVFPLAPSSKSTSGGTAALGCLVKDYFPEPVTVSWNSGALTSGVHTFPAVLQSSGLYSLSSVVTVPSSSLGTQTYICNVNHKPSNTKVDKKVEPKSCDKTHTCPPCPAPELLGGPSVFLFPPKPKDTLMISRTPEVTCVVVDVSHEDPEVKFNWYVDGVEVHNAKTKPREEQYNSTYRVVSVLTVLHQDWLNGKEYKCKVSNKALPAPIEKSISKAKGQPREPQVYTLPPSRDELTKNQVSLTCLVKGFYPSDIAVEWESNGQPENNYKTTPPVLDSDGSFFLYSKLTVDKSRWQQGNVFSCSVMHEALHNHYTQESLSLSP
light: DIVMTQSPLSLPVTPGEPASISCQASESLVHSNRNTYLHWYLQKPGQSPQLLIYKVSNRFSGVPDRFSGSGSGTDFTLKISRVEAEDVGVYYCSQNTHVPPTFGQGTKVEIERTVAAPSVFIFPPSDEQLKSGTASVVCLLNNFYPREAKVQWKVDNALQSGNSQESVTEQDSKDSTYSLSSTLTLSKADYEKHKVYACEVTHQGLSSPVTKSFNRGEC
notes: Alteration in both H chains; also called Ho Ab T335_13S
B5: GpH7-B3 variant T335_01G/GpL16-k0 (antibody, human IgG1, kappa)
heavy: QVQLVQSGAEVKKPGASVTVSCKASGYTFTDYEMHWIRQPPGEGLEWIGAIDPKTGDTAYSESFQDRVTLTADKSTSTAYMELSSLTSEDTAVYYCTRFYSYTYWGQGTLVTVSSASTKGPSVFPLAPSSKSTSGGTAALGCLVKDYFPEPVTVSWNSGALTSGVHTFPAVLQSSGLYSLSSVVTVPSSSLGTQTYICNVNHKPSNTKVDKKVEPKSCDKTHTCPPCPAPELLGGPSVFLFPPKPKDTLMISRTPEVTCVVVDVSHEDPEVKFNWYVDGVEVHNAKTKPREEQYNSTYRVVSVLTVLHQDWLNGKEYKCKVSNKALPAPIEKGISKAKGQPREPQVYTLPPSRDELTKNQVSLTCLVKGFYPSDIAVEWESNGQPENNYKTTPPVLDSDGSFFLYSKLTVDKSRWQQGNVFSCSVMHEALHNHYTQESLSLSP
light: DIVMTQSPLSLPVTPGEPASISCQASESLVHSNRNTYLHWYLQKPGQSPQLLIYKVSNRFSGVPDRFSGSGSGTDFTLKISRVEAEDVGVYYCSQNTHVPPTFGQGTKVEIERTVAAPSVFIFPPSDEQLKSGTASVVCLLNNFYPREAKVQWKVDNALQSGNSQESVTEQDSKDSTYSLSSTLTLSKADYEKHKVYACEVTHQGLSSPVTKSFNRGEC
notes: Alteration in both H chains; also called Ho Ab T335_01G
B6: GpH7-B3 variant Y296_08L/GpL16-k0 (antibody, human IgG1, kappa)
heavy: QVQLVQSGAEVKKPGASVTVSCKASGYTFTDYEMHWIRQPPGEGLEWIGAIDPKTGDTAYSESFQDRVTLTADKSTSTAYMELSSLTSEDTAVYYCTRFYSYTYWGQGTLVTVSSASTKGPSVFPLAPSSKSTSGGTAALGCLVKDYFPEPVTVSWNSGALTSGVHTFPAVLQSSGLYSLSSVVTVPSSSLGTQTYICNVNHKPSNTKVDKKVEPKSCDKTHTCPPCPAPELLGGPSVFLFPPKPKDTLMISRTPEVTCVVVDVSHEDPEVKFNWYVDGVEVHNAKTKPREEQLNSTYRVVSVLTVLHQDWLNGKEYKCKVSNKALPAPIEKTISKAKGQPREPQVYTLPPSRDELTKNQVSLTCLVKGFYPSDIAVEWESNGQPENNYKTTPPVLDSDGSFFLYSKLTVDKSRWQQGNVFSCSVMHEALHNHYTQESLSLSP
light: DIVMTQSPLSLPVTPGEPASISCQASESLVHSNRNTYLHWYLQKPGQSPQLLIYKVSNRFSGVPDRFSGSGSGTDFTLKISRVEAEDVGVYYCSQNTHVPPTFGQGTKVEIERTVAAPSVFIFPPSDEQLKSGTASVVCLLNNFYPREAKVQWKVDNALQSGNSQESVTEQDSKDSTYSLSSTLTLSKADYEKHKVYACEVTHQGLSSPVTKSFNRGEC
notes: Alteration in both H chains; also called Ho Ab Y296_08L
B7: GpH7-B3 variant Y296_07I/GpL16-k0 (antibody, human IgG1, kappa)
heavy: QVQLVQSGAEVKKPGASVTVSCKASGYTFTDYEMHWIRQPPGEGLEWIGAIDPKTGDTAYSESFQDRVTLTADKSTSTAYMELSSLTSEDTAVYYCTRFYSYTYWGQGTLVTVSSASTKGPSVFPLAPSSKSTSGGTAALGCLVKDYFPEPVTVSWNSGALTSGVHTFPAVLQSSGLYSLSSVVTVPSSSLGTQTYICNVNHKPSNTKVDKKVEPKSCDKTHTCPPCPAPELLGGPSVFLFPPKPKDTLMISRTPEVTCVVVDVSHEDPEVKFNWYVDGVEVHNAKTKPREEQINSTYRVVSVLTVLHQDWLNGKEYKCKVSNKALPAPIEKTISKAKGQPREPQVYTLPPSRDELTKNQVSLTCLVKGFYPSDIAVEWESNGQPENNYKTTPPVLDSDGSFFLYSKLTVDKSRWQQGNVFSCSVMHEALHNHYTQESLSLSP
light: DIVMTQSPLSLPVTPGEPASISCQASESLVHSNRNTYLHWYLQKPGQSPQLLIYKVSNRFSGVPDRFSGSGSGTDFTLKISRVEAEDVGVYYCSQNTHVPPTFGQGTKVEIERTVAAPSVFIFPPSDEQLKSGTASVVCLLNNFYPREAKVQWKVDNALQSGNSQESVTEQDSKDSTYSLSSTLTLSKADYEKHKVYACEVTHQGLSSPVTKSFNRGEC
notes: Alteration in both H chains; also called Ho Ab Y296_07I
B8: GpH7-B3 variant Y300_07I/GpL16-k0 (antibody, human IgG1, kappa)
heavy: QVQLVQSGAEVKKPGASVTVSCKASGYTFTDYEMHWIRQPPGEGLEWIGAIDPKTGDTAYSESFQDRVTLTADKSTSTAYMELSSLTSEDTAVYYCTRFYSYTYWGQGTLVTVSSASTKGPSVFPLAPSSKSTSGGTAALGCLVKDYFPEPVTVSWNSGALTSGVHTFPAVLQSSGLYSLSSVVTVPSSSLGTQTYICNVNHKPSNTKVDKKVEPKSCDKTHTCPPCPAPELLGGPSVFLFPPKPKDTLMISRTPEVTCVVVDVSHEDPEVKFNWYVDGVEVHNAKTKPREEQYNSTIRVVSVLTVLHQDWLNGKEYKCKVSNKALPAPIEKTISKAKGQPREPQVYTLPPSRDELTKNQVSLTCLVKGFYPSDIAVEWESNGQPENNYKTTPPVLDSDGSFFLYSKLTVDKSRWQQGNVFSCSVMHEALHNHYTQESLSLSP
light: DIVMTQSPLSLPVTPGEPASISCQASESLVHSNRNTYLHWYLQKPGQSPQLLIYKVSNRFSGVPDRFSGSGSGTDFTLKISRVEAEDVGVYYCSQNTHVPPTFGQGTKVEIERTVAAPSVFIFPPSDEQLKSGTASVVCLLNNFYPREAKVQWKVDNALQSGNSQESVTEQDSKDSTYSLSSTLTLSKADYEKHKVYACEVTHQGLSSPVTKSFNRGEC
notes: Alteration in both H chains; also called Ho Ab Y300_07I
B9: GpH7-B3 variant Y296_03V/GpL16-k0 (antibody, human IgG1, kappa)
heavy: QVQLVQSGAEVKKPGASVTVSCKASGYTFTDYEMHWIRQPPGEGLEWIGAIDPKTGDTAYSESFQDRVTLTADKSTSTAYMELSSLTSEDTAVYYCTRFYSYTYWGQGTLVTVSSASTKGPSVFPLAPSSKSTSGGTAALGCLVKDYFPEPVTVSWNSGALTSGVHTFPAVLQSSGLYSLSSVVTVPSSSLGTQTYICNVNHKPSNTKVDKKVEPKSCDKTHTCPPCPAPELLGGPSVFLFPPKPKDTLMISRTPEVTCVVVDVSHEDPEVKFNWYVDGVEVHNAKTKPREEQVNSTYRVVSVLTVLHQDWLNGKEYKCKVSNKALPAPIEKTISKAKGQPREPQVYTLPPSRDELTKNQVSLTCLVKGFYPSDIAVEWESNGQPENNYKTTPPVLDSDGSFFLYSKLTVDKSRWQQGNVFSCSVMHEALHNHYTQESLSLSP
light: DIVMTQSPLSLPVTPGEPASISCQASESLVHSNRNTYLHWYLQKPGQSPQLLIYKVSNRFSGVPDRFSGSGSGTDFTLKISRVEAEDVGVYYCSQNTHVPPTFGQGTKVEIERTVAAPSVFIFPPSDEQLKSGTASVVCLLNNFYPREAKVQWKVDNALQSGNSQESVTEQDSKDSTYSLSSTLTLSKADYEKHKVYACEVTHQGLSSPVTKSFNRGEC
notes: Alteration in both H chains; also called Ho Ab Y296_03V
B10: GpH7-B3 variant T335_02A/GpL16-k0 (antibody, human IgG1, kappa)
heavy: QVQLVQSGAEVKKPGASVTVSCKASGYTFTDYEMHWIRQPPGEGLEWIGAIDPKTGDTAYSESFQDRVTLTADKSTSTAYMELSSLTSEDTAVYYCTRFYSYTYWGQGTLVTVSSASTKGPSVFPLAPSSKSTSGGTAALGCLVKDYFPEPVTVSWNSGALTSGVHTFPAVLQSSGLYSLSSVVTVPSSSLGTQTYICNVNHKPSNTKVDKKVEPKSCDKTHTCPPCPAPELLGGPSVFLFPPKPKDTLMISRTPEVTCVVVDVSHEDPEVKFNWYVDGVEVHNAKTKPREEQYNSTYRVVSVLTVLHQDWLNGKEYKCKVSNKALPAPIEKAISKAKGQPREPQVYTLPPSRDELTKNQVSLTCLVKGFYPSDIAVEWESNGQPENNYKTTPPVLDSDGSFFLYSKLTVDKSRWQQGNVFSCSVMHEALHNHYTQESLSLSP
light: DIVMTQSPLSLPVTPGEPASISCQASESLVHSNRNTYLHWYLQKPGQSPQLLIYKVSNRFSGVPDRFSGSGSGTDFTLKISRVEAEDVGVYYCSQNTHVPPTFGQGTKVEIERTVAAPSVFIFPPSDEQLKSGTASVVCLLNNFYPREAKVQWKVDNALQSGNSQESVTEQDSKDSTYSLSSTLTLSKADYEKHKVYACEVTHQGLSSPVTKSFNRGEC
notes: Alteration in both H chains; also called Ho Ab T335_02A

In this experiment the target is T1, FcγRIa (human, UniProt P12314 16-292).
T1 construct: extracellular domain; also called FcgRI; FcgRIa; not shown: His tag attached to the C terminus
T1 sequence (P12314 16-292): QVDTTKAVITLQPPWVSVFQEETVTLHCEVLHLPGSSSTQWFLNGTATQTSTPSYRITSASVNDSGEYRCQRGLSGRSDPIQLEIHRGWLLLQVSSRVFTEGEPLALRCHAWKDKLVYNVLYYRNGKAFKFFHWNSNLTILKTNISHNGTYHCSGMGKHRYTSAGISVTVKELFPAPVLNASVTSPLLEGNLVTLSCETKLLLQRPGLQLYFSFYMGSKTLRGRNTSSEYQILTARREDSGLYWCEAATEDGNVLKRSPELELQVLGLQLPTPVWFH
As to the kind of experiment: SPR (Biacore), relative binding; control HoCon Ab GpH7-B3/GpL16-k0. (In general: In SPR one partner is held on a chip, and binding of the other changes the refractive index at the surface.)
With B1, the Ho/Con_1a was 106 % of control (=100).

For B2, the Ho/Con_1a was 111 % of control (=100).

On to B3, for which the Ho/Con_1a was 103 % of control (=100).

On to B4, for which the Ho/Con_1a was 105 % of control (=100).

With B5, the Ho/Con_1a was 106 % of control (=100).

Regarding B6, the Ho/Con_1a is 105 % of control (=100).

As to B7, the Ho/Con_1a was 106 % of control (=100).

Turning to B8, the Ho/Con_1a was 109 % of control (=100).

B9: the Ho/Con_1a is 104 % of control (=100).

For B10, the Ho/Con_1a was 105 % of control (=100).
